The labels stand for the following.
B3: recombinant AIM protein (rAIM) of mouse labeled with HA-tag (ligand)
chain: ESPTKVQLVGGAHRCEGRVEVEHNGQWGTVCDDGWDRRDVAVVCRELNCGAVIQTPRGASYQPPASEQRVLIQGVDCNGTEDTLAQCELNYYVFDCSHEEDAGAQCENPDSDLLFIPEDVRLVDGPGHCQGRVEVLHQSQWSTVCKAGWNLQVSKVVCRQLGCGRALLTYGSCNKNTQGKGPIWMGKMSCSGQEANLRSCLLSRLENNCTHGEDTWMECEDPFELKLVGGDTPCSGRLEVLHKGSWGSVCDDNWGEKEDQVVCKQLGCGKSLHPSPKTRKIYGPGAGRIWLDDVNCSGKEQSLEFCRHRLWGYHDCTHKEDVEVICTDFDV
notes: also called rAIM-HA; AIM-HA; not shown: HA-tag

What all share (assay): co-immunoprecipitation of Flag-tagged FAS domains with AIM-HA in HEK293T cells
The target of assay [1] is B3.
Assay [2] concerns the target T1, malonyl/acetyl transferase (MAT) domain of FAS labeled with Flag at the N-terminal (UniProt P19096 429-817, limits assumed).
T1 construct: domain: malonyl/acetyl transferase (MAT); Subcloned into pFLAG-CMV2 from the full-length FAS cDNA
T1 sequence (looked up): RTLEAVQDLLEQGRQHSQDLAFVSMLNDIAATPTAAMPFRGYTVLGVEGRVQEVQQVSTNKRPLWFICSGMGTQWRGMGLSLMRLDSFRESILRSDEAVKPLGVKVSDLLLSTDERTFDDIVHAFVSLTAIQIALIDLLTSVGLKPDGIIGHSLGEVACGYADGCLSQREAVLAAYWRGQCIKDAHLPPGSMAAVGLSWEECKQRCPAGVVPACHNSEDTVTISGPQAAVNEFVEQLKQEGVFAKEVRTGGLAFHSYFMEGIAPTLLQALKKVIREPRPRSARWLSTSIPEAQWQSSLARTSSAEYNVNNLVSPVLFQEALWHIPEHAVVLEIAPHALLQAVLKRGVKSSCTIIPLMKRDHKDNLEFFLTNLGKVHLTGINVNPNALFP

Assay [3] deals with T2, keto acyl synthase (KS) domain of FAS labeled with Flag at the N-terminal (UniProt P19096 1-406, limits assumed).
T2 construct: domain: keto acyl synthase (KS); Subcloned into pFLAG-CMV2 from the full-length FAS cDNA
T2 sequence (looked up): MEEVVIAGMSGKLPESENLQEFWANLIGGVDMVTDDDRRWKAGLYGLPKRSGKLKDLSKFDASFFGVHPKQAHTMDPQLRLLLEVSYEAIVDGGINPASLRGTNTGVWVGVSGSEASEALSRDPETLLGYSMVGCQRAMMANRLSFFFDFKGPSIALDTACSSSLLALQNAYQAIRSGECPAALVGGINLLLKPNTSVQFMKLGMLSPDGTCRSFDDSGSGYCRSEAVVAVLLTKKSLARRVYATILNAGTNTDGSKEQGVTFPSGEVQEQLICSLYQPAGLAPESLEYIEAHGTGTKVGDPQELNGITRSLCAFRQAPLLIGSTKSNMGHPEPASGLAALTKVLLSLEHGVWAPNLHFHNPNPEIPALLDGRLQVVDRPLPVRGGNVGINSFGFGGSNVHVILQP

B1: keto reductase (KR) domain of FAS labeled with Flag at the N-terminal (enzyme, UniProt P19096 1857-2111, looked up, not shown: small tags and cut ends)
chain: VLPGAQPTLISAISKTFCPAHKSYIITGGLGGFGLELARWLVLRGAQRLVLTSRSGIRTGYQAKHIREWRRQGIQVLVSTSNVSSLEGARALIAEATKLGPVGGVFNLAMVLRDAMLENQTPELFQDVNKPKYNGTLNLDRATREACPELDYFVAFSSVSCGRGNAGQTNYGFANSTMERICEQRRHDGLPGLAVQWGAIGDVGIVLEAMGTNDTVIGGTLPQRISSCMEVLDLFLNQPHAVLSSFVLAEKKAVA
notes: domain: keto reductase (KR); Subcloned into pFLAG-CMV2 from the full-length FAS cDNA
For B1, the binding result in assay [1] is listed as “no binding”.

B2: acylcarrier protein (ACP) domain of FAS labeled with Flag at the N-terminal (enzyme, UniProt P19096 2112-2192, looked up, not shown: small tags and cut ends)
chain: HGDGDTQRDLVKAVAHILGIRDLAGINLDSTLADLGLDSLMGVEVRQILEREHDLVLPMREVRQLTLRKLQEMSSKTDSAT
notes: domain: acylcarrier protein (ACP); Subcloned into pFLAG-CMV2 from the full-length FAS cDNA
In the case of B2, the binding result in assay [1] was “no binding”. On to B3, for which the binding result in assay [2] and in assay [3] was “no binding” in each case.

Values taken from patent US20130115220A1 (DAINIPPON SUMITOMO PHARMA, published 2013).
